Laboratory results reported in the supplement of paper PMC5998384.

How the values were obtained:
HeLa Kyoto [1] = assay: solubility in G1/S (NP-40 vs SDS abundance) (log2 ratio); higher = more soluble; conditions: cell cycle stage: G1/S
HeLa Kyoto [2] = assay: melting temperature (median over replicates), in situ; higher = more thermally stable
HeLa Kyoto [3] = assay: solubility change mitosis vs G1/S (difference of NP-40 vs SDS log2 ratios) (log2 ratio difference); higher = more soluble in mitosis
HeLa Kyoto [4] = assay: thermal stability score vs G1/S (z-score of summed log2 fold changes over temperatures); higher = more thermally stable than in G1/S
[5] = cell cycle stage: early G1 (4.5 h after nocodazole release)
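For melting temperature (median over replicates), in situ in this document: HeLa Kyoto cells synchronized by double thymidine or nocodazole block, proteins quantified by TMT10plex mass spectrometry, three independent biological replicates.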
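For solubility change mitosis vs G1/S (difference of NP-40 vs SDS log2 ratios) in this document: synchronized HeLa Kyoto cells (double thymidine block for G1/S, nocodazole release for mitosis), protein amounts in NP-40 versus SDS lysates quantified by mass spectrometry, three biological replicates.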
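For solubility in G1/S (NP-40 vs SDS abundance) in this document: HeLa Kyoto cells arrested at G1/S by double thymidine block, proteins quantified by TMT10plex mass spectrometry in mild NP-40 versus SDS extracts, three biological replicates.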
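For thermal stability score vs G1/S (z-score of summed log2 fold changes over temperatures) in this document: synchronized HeLa Kyoto cells, proteins quantified by TMT10plex mass spectrometry, three biological replicates, mitosis taken 0.5 h after nocodazole release, G1/S directly after double thymidine block.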

Row | Sequence | solubility in G1/S (log2) (HeLa Kyoto [1]) | melting temperature (HeLa Kyoto [2]; cell cycle stage: G1/S) [°C] | melting temperature (HeLa Kyoto [2]; cell cycle stage: mitosis) [°C] | solubility change mitosis (log2) (HeLa Kyoto [3]) | thermal stability score (HeLa Kyoto [4]; [5]) | thermal stability score (HeLa Kyoto [4]; cell cycle stage: mitosis)
1 | MIPLLLAALLCVPAGALTCYGDSGQPVDWFVVYKLPALRGSGEAAQRGLQYKYLDESSGGWRDGRALINSPEGAVGRSLQPLYRSNTSQLAFLLYNDQPPQPSKAQDSSMRGHTKGVLLLDHDGGFWLVHSVPNFPPPASSAAYSWPHSACTYGQTLLCVSFPFAQFSKMGKQLTYTYPWVYNYQLEGIFAQEFPDLENVVKGHHVSQEPWNSSITLTSQAGAVFQSFAKFSKFGDDLYSGWLAAALGTNLQVQFWHKTVGILPSNCSDIWQVLNVNQIAFPGPAGPSFNSTEDHSKWCVSPKGPWTCVGDMNRNQGEEQRGGGTLCAQLPALWKAFQPLVKNYQPCNGMARKPSRAYKI [DNASE2] | 0.364 | 56.2 | 56.1 | -0.0918 | -1.39 | -2.33
2 | MIRAAPPPLFLLLLLLLLLVSWASRGEAAPDQDEIQRLPGLAKQPSFRQYSGYLKGSGSKHLHYWFVESQKDPENSPVVLWLNGGPGCSSLDGLLTEHGPFLVQPDGVTLEYNPYSWNLIANVLYLESPAGVGFSYSDDKFYATNDTEVAQSNFEALQDFFRLFPEYKNNKLFLTGESYAGIYIPTLAVLVMQDPSMNLQGLAVGNGLSSYEQNDNSLVYFAYYHGLLGNRLWSSLQTHCCSQNKCNFYDNKDLECVTNLQEVARIVGNSGLNIYNLYAPCAGGVPSHFRYEKDTVVVQDLGNIFTRLPLKRMWHQALLRSGDKVRMDPPCTNTTAASTYLNNPYVRKALNIPEQLPQWDMCNFLVNLQYRRLYRSMNSQYLKLLSSQKYQILLYNGDVDMACNFMGDEWFVDSLNQKMEVQRRPWLVKYGDSGEQIAGFVKEFSHIAFLTIKGAGHMVPTDKPLAAFTMFSRFLNKQPY [CTSA] | 0.138 | 54.5 | 57 | -0.0924 | 0.798 | 2.87
3 | MKALDEPPYLTVGTDVSAKYRGAFCEAKIKTAKRLVKVKVTFRHDSSTVEVQDDHIKGPLKVGAIVEVKNLDGAYQEAVINKLTDASWYTVVFDDGDEKTLRRSSLCLKGERHFAESETLDQLPLTNPEHFGTPVIGKKTNRGRRSNHIPEEESSSSSSDEDEDDRKQIDELLGKVVCVDYISLDKKKALWFPALVVCPDCSDEIAVKKDNILVRSFKDGKFTSVPRKDVHEITSDTAPKPDAVLKQAFEQALEFHKSRTIPANWKTELKEDSSSSEAEEEEEEEDDEKEKEDNSSEEEEEIEPFPEERENFLQQLYKFMEDRGTPINKRPVLGYRNLNLFKLFRLVHKLGGFDNIESGAVWKQVYQDLGIPVLNSAAGYNVKCAYKKYLYGFEEYCRSANIEFQMALPEKVVNKQCKECENVKEIKVKEENETEIKEIKMEEERNIIPREEKPIEDEIERKENIKPSLGSKKNLLESIPTHSDQEKEVNIKKPEDNENLDDKDDDTTRVDESLNIKVEAEEEKAKSGDETNKEEDEDDEEAEEEEEEEEEEEDEDDDDNNEEEEFECYPPGMKVQVRYGRGKNQKMYEASIKDSDVEGGEVLYLVHYCGWNVRYDEWIKADKIVRPADKNVPKIKHRKKIKNKLDKEKDKDEKYSPKNCKLRRLSKPPFQTNPSPEMVSKLDLTDAKNSDTAHIKSIEITSILNGLQASESSAEDSEQEDERGAQDMDNNGKEESKIDHLTNNRNDLISKEEQNSSSLLEENKVHADLVISKPVSKSPERLRKDIEVLSEDTDYEEDEVTKKRKDVKKDTTDKSSKPQIKRGKRRYCNTEECLKTGSPGKKEEKAKNKESLCMENSSNSSSDEDEEETKAKMTPTKKYNGLEEKRKSLRTTGFYSGFSEVAEKRIKLLNNSDERLQNSRAKDRKDVWSSIQGQWPKKTLKELFSDSDTEAAASPPHPAPEEGVAEESLQTVAEEESCSPSVELEKPPPVNVDSKPIEEKTVEVNDRKAEFPSSGSNSVLNTPPTTPESPSSVTVTEGSRQQSSVTVSEPLAPNQEEVRSIKSETDSTIEVDSVAGELQDLQSEGNSSPAGFDASVSSSSSNQPEPEHPEKACTGQKRVKDAQGGGSSSKKQKRSHKATVVNNKKKGKGTNSSDSEELSAGESITKSQPVKSVSTGMKSHSTKSPARTQSPGKCGKNGDKDPDLKEPSNRLPKVYKWSFQMSDLENMTSAERITILQEKLQEIRKHYLSLKSEVASIDRRRKRLKKKERESAATSSSSSSPSSSSITAAVMLTLAEPSMSSASQNGMSVECR [ARID4B] | -0.276 | 48.4 | 49.6 | 0.0721 | 0.255 | 0.983
4 | MKARRNKKQIPSFRKLIKTSKVKLENKLKNKQFKQQSTLKKYRKEQRKLRQAVKDAVSKKPIPLENPKEKRPGKRIEREEEEEEEALPLDMMDEDDLQLMKDLGQRVSFLTRDLSSSEPVHAKKRKHERIIDKYEKIPRTLQTAPEKELIHLLPIKDKSGIIPQTREKPVTDSNKDEEDQEEERELEEEIIEDPIQELTIEEHLIERKKKLQEKKMHIAALASAILSDPENNIKKLKELRSMLMEQDPDVAVTVRKLVIVSLMELFKDITPSYKIRPLTEAEKSTKTRKETQKLREFEEGLVSQYKFYLENLEQMVKDWKQRKLKKSNVVSLKAYKGLAEVAVKSLCELLVALPHFNFHNNIIVLIVPLMNDMSKLISEMCCEAVKKLFKQDKLGQASLGVIKVISGFVKGRNYEVRPEMLKTFLCLRIKEVEVKKDTEDINKPKKFMTFKEKRKSLSRMQRKWKKAEEKLERELREAEASESTEKKLKLHTETLNIVFVTYFRILKKAQRSPLLPAVLEGLAKFAHLINVEFFDDLLVVLHTLIESGDLSYQESLHCVQTAFHILSGQGDVLNIDPLKFYTHLYKTLFKLHAGATNEGVEIVLQCLDVMLTKRRKQVSQQRALAFIKRLCTLALHVLPNSSIGILATTRILMHTFPKTDLLLDSESQGSGVFLPELDEPEYCNAQNTALWELHALRRHYHPIVQRFAAHLIAGAPSEGSGALKPELSRRSATELFEAYSMAEMTFNPPVESSNPKIKGKFLQGDSFLNEDLNQLIKRYSSEVATESPLDFTKYLKTSLH [NOC3L] | -1.96 | 49.2 | 50 | 1.29 | 0.294 | 0.855
5 | MKDSENKGASSPDMEPSYGGGLFDMVKGGAGRLFSNLKDNLKDTLKDTSSRVIQSVTSYTKGDLDFTYVTSRIIVMSFPLDNVDIGFRNQVDDIRSFLDSRHLDHYTVYNLSPKSYRTAKFHSRVSECSWPIRQAPSLHNLFAVCRNMYNWLLQNPKNVCVVHCLDGRAASSILVGAMFIFCNLYSTPGPAIRLLYAKRPGIGLSPSHRRYLGYMCDLLADKPYRPHFKPLTIKSITVSPIPFFNKQRNGCRPYCDVLIGETKIYSTCTDFERMKEYRVQDGKIFIPLNITVQGDVVVSMYHLRSTIGSRLQAKVTNTQIFQLQFHTGFIPLDTTVLKFTKPELDACDVPEKYPQLFQVTLDVELQPHDKVIDLTPPWEHYCTKDVNPSILFSSHQEHQDTLALGGQAPIDIPPDNPRHYGQSGFFASLCWQDQKSEKSFCEEDHAALVNQESEQSDDELLTLSSPHGNANGDKPHGVKKPSKKQQEPAAPPPPEDVDLLGLEGSAMSNSFSPPAAPPTNSELLSDLFGGGGAAGPTQAGQSGVEDVFHPSGPASTQSTPRRSATSTSASPTLRVGEGATFDPFGAPSKPSGQDLLGSFLNTSSASSDPFLQPTRSPSPTVHASSTPAVNIQPDVSGGWDWHAKPGGFGMGSKSAATSPTGSSHGTPTHQSKPQTLDPFADLGTLGSSSFASKPTTPTGLGGGFPPLSSPQKASPQPMGGGWQQGGAYNWQQPQPKPQPSMPHSSPQNRPNYNVSFSAMPGGQNERGKGSSNLEGKQKAADFEDLLSGQGFNAHKDKKGPRTIAEMRKEEMAKEMDPEKLKILEWIEGKERNIRALLSTMHTVLWAGETKWKPVGMADLVTPEQVKKVYRKAVLVVHPDKATGQPYEQYAKMIFMELNDAWSEFENQGQKPLY [DNAJC6] | 0.0466 | 51.6 | 51.7 | -0.112 | -0.0779 | -0.888
6 | MKFRAKIVDGACLNHFTRISNMIAKLAKTCTLRISPDKLNFILCDKLANGGVSMWCELEQENFFNEFQMEGVSAENNEIYLELTSENLSRALKTAQNARALKIKLTNKHFPCLTVSVELLSMSSSSRIVTHDIPIKVIPRKLWKDLQEPVVPDPDVSIYLPVLKTMKSVVEKMKNISNHLVIEANLDGELNLKIETELVCVTTHFKDLGNPPLASESTHEDRNVEHMAEVHIDIRKLLQFLAGQQVNPTKALCNIVNNKMVHFDLLHEDVSLQYFIPALS [HUS1] | 0.0659 | 51.8 | 51.9 | -0.083 | 1.48 | 1.19
7 | MKGKEEKEGGARLGAGGGSPEKSPSAQELKEQGNRLFVGRKYPEAAACYGRAITRNPLVAVYYTNRALCYLKMQQHEQALADCRRALELDGQSVKAHFFLGQCQLEMESYDEAIANLQRAYSLAKEQRLNFGDDIPSALRIAKKKRWNSIEERRIHQESELHSYLSRLIAAERERELEECQRNHEGDEDDSHVRAQQACIEAKHDKYMADMDELFSQVDEKRKKRDIPDYLCGKISFELMREPCITPSGITYDRKDIEEHLQRVGHFDPVTRSPLTQEQLIPNLAMKEVIDAFISENGWVEDY [STUB1] | 0.397 | 46.7 | 49.5 | 0.0745 | 1.3 | 2.29
8 | MKIKDAKKPSFPWFGMDIGGTLVKLSYFEPIDITAEEEQEEVESLKSIRKYLTSNVAYGSTGIRDVHLELKDLTLFGRRGNLHFIRFPTQDLPTFIQMGRDKNFSTLQTVLCATGGGAYKFEKDFRTIGNLHLHKLDELDCLVKGLLYIDSVSFNGQAECYYFANASEPERCQKMPFNLDDPYPLLVVNIGSGVSILAVHSKDNYKRVTGTSLGGGTFLGLCSLLTGCESFEEALEMASKGDSTQADKLVRDIYGGDYERFGLPGWAVASSFGNMIYKEKRESVSKEDLARATLVTITNNIGSVARMCAVNEKINRVVFVGNFLRVNTLSMKLLAYALDYWSKGQLKALFLEHEGYFGAVGALLGLPNFS [PANK3] | -0.124 | 53.4 | 53.9 | -0.137 | -1.56 | -0.972
9 | MKKFFDSRREQGGSGLGSGSSGGGGSTSGLGSGYIGRVFGIGRQQVTVDEVLAEGGFAIVFLVRTSNGMKCALKRMFVNNEHDLQVCKREIQIMRDLSGHKNIVGYIDSSINNVSSGDVWEVLILMDFCRGGQVVNLMNQRLQTGFTENEVLQIFCDTCEAVARLHQCKTPIIHRDLKVENILLHDRGHYVLCDFGSATNKFQNPQTEGVNAVEDEIKKYTTLSYRAPEMVNLYSGKIITTKADIWALGCLLYKLCYFTLPFGESQVAICDGNFTIPDNSRYSQDMHCLIRYMLEPDPDKRPDIYQVSYFSFKLLKKECPIPNVQNSPIPAKLPEPVKASEAAAKKTQPKARLTDPIPTTETSIAPRQRPKAGQTQPNPGILPIQPALTPRKRATVQPPPQAAGSSNQPGLLASVPQPKPQAPPSQPLPQTQAKQPQAPPTPQQTPSTQAQGLPAQAQATPQHQQQLFLKQQQQQQQPPPAQQQPAGTFYQQQQAQTQQFQAVHPATQKPAIAQFPVVSQGGSQQQLMQNFYQQQQQQQQQQQQQQLATALHQQQLMTQQAALQQKPTMAAGQQPQPQPAAAPQPAPAQEPAIQAPVRQQPKVQTTPPPAVQGQKVGSLTPPSSPKTQRAGHRRILSDVTHSAVFGVPASKSTQLLQAAAAEASLNKSKSATTTPSGSPRTSQQNVYNPSEGSTWNPFDDDNFSKLTAEELLNKDFAKLGEGKHPEKLGGSAESLIPGFQSTQGDAFATTSFSAGTAEKRKGGQTVDSGLPLLSVSDPFIPLQVPDAPEKLIEGLKSPDTSLLLPDLLPMTDPFGSTSDAVIEKADVAVESLIPGLEPPVPQRLPSQTESVTSNRTDSLTGEDSLLDCSLLSNPTTDLLEEFAPTAISAPVHKAAEDSNLISGFDVPEGSDKVAEDEFDPIPVLITKNPQGGHSRNSSGSSESSLPNLARSLLLVDQLIDL [AAK1] | 0.192 | 50.9 | 51.8 | -0.0894 | 0.691 | 0.746
